Laboratory results as given in patent US6348327.
Positions count from the first letter of the chain named.

T1: prorelaxin mutant Rx 3.2, P04090
T1 chain: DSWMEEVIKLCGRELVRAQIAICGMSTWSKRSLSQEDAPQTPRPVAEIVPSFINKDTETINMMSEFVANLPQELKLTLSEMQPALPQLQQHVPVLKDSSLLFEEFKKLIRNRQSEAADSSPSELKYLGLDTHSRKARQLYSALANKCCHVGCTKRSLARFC

T2: prorelaxin mutant Rx7.2, P04090
T2 chain: T1 chain with K30A, A136K

T3: prorelaxin mutant Rx8.6, P04090
T3 chain: T1 chain with R31A, A136K

T4: prorelaxin mutant Rx 1.4, P04090
T4 chain: T1 chain with R134V, A136K

T5: prorelaxin mutant Rx 4.3, P04090
T5 chain: T1 chain with A136R, R137A

T6: prorelaxin mutant Rx 2.4, P04090
T6 chain: T1 chain with K135A, A136K

T7: human H2 prorelaxin (wild-type), P04090
T7 chain: T1 chain with A136K

B1: murine prohormone convertase 1 (protein)
chain: SVQKDSALDLFNDPMWNQQWYLQDTRMTAALPKLDLHVIPVWEKGITGKGVVITVLDDGLEWNHTDIYANYDPEASYDFNDNDHDPFPRYDLTNENKHGTRCAGEIAMQANNHKCGVGVAYNSKVGGIRMLDGIVTDAIEASSIGFNPGHVDIYSASWGPNDDGKTVEGPGRLAQKAFEYGVKQGRQGKGSIFVWASGNGGRQGDNCDCDGYTDSIYTISISSASQQGLSPWYAEKCSSTLATSYSSGDYTDQRITSADLHNDCTETHTGTSASAPLAAGIFALALEANPNLTWRDMQHLVVWTSEYDPLASNPGWKKNGAGLMVNSRFGFGLLNAKALVDLADPRTWRNVPEKKECVVKDNNFEPRALKANGEVIVEIPTRACEGQENAIKSLEHVQFEATIEYSRRGDLHVTLTSAVGTSTVLLAERERDTSPNGFKNWDFMSVHTWGENPVGTWTLKITDMSGRMQNEGRIVNWKLILHGTSSQPEHMKQPRVYTSYNTVQNDRRGVEKMVNVVEKRPTQKSLNGNLLVPKNSSSSNVEGRRDEQVQGTPSKAMLRLLQSAFSKNALSKQSPKKSPSAKLSIPYESFYEALEKLNKPSKLEGSEDSLYSDYVDVFYNTKPYKHRDDRLLQALMDILNEEN
B2: murine prohormone convertase 2 (protein)
chain: GYRDINEIDINMNDPLFTKQWYLFNTGQADGTPGLDLNVAEAWELGYTGKGVTIGIMDDGIDYLHPDLAYNYNADASYDFSSNDPYPYPRYTDDWFNSHGTRCAGEVSAAASNNICGVGVAYNSKVAGIRMLDQPFMTDIIEASSISHMPQLIDIYSASWGPTDNGKTVDGPRELTLQAMADGVNKGRGGKGSIYVWASGDGGSYDDCNCDGYASSMWTISINSAINDGRTALYDESCSSTLASTFSNGRKRNPEAGVATTDLYGNCTLRHSGTSAAAPEAAGVFALALEANLDLTWRDMQHLTVLTSKRNQLHDEVHQWRRNGVGLEFNHLFGYGVLDAGAMVKMAKDWKTVPERFHCVGGSVQNPEKIPPTGKLVLTLKTNACEGKENFVRYLEHVQAVITVNATRRGDLNINMTSPMGTKSILLSRRPRDDDSKVGFDKWPFMTTHTWGEDARGTWTLELGFVGSAPQKGLLKEWTLMLHGTQSAPYIDQVVRDYQSKLAMSKKQELEEELDEAVERSLQSILRKN

Key:
[1] = biological target: T1, prorelaxin mutant Rx 3.2, P04090
[2] = biological target: T2, prorelaxin mutant Rx7.2, P04090
[3] = biological target: T3, prorelaxin mutant Rx8.6, P04090
[4] = biological target: T4, prorelaxin mutant Rx 1.4, P04090
[5] = biological target: T5, prorelaxin mutant Rx 4.3, P04090
[6] = biological target: T6, prorelaxin mutant Rx 2.4, P04090
[7] = biological target: T7, human H2 prorelaxin (wild-type), P04090

Protein	processing of prorelaxin mutant by murine prohormone convertase 1 [1]	processing of prorelaxin mutant by murine prohormone convertase 1 [2]	processing of prorelaxin mutant by murine prohormone convertase 1 [3]	processing of prorelaxin mutant by murine prohormone convertase 1 [4]	processing of prorelaxin mutant by murine prohormone convertase 1 [5]	processing of prorelaxin mutant by murine prohormone convertase 1 [6]	cleavage of prorelaxin mutant by murine prohormone convertase 2 [1]	cleavage of prorelaxin mutant by murine prohormone convertase 2 [2]	cleavage of prorelaxin by murine prohormone convertase 2 [7]	cleavage of prorelaxin mutant by murine prohormone convertase 2 [3]	cleavage of prorelaxin mutant by murine prohormone convertase 2 [4]	cleavage of prorelaxin mutant by murine prohormone convertase 2 [5]	cleavage of prorelaxin mutant by murine prohormone convertase 2 [6]
B1	mutant 3.2 is partially processed	mutants 7.2 and 8.6 are not processed	mutants 7.2 and 8.6 are not processed	Mutants 1.4 and 2.4 are processed the same as wild-type	Mutant 4.3 doesn't appear to be processed	Mutants 1.4 and 2.4 are processed the same as wild-type							
B2							does not cleave any of the prorelaxin mutants with the exception of 4.3	Mutant 7.2 is not cleaved by murine prohormone convertase 2	Murine prohormone convertase 2 does not cleave the wildtype prorelaxin	does not cleave any of the prorelaxin mutants with the exception of 4.3	does not cleave any of the prorelaxin mutants with the exception of 4.3	with the exception of 4.3 where there is some processing	does not cleave any of the prorelaxin mutants with the exception of 4.3
